Results as given in paper PMC3683042, “Solution Structure and Peptide Binding of the PTB Domain from the AIDA1 Postsynaptic Signaling Scaffolding Protein” (PLoS ONE, 2013).

Assays:
[1] = Thermal denaturation midpoint (Tm) by CD spectroscopy; assay type: physicochemical; conditions: far UV CD, ellipticity at 222 nm, 50 µM protein, heating 20–90°C at 2°C/min
Protocol: Far UV circular dichroism (CD) spectra were acquired with a Jasco J-810 instrument at a protein concentration of 50 µM using a rectangular cell with a 0.1 cm path length. Spectra were recorded from 260–200 nm with a scan rate of 50 nm/min and a 1.0 nm bandwidth. A midpoint denaturation temperature (Tm) was determined by heating samples from 20–90°C at 2°C/min and monitoring ellipticity at 222 nm.

[2] = Solubility of the AIDA1 PTB domain and mutants
Text: Since the objective of the aromatic-alanine substitutions was to improve solubility for a structure determination, ^15N-HSQC spectra were used qualitatively.

B1: wild type: PTB domain (aa. 1043–1195) of human AIDA1b, amino terminal 6xHis tag and intervening thrombin site (protein, UniProt Q7Z6G8 1043-1195, looked up, fragment)
chain: TPVQYWQHHPEKLIFQSCDYKAFYLGSMLIKELRGTESTQDACAKMRANCQKSTEQMKKVPTIILSVSYKGVKFIDATNKNIIAEHEIRNISCAAQDPEDLSTFAYITKDLKSNHHYCHVFTAFDVNLAYEIILTLGQAFEVAYQLALQARKG
modifications: PTB domain His tag, thrombin site
notes: PTB domain (aa. 1043–1195) of human AIDA1b, amino terminal 6xHis tag and intervening thrombin site
Tm [1]: 62 °C | solubility (in words) [2]: poor solubility | soluble concentration, at least one day at room temperature [2]: 0.15 mM | Solubility ([2]; concentrated until increased resonance line broadening or apparent turbidity, 15N-HSQC NMR read-out, 20 mM Na-phosphate, pH 7.8, […] NaCl, 0.05% (w/v) NaN3): 100 µM
